Test results as given in patent US20230330251A1, “METHODS FOR TREATING CANCERS WITH ANTIBODY DRUG CONJUGATES (ADC) THAT BIND TO 191P4D12 PROTEINS” (AGENSYS, INC., priority 2020, published 2023).

Tested on: subjects with previously treated locally advanced or metastatic urothelial cancer
Experiment: EV-301: safety, adverse events (safety analysis set, NCI-CTCAE v4.03, MedDRA)
[1] = Any Grade, N = 296 EV, 291 chemotherapy
[2] = Baseline PN, n = 55 EV, 58 chemotherapy
[3] = Grade 1, N = 296 EV, 291 chemotherapy
[4] = Grade 2, N = 296 EV, 291 chemotherapy
[5] = Grade 3, N = 296 EV, 291 chemotherapy
[6] = Grade 4, N = 296 EV, 291 chemotherapy
[7] = Grade Any, N = 296 EV, 291 chemotherapy

Source text: The Safety Analysis Set (SAF) will be used for the safety analysis. All subjects who are randomized and received study drug will be included in the SAF. The frequency of AEs and the serious AEs will be summarized by MedDRA system organ class and preferred term. In addition, summary statistics will be provided for the following safety parameters: • Laboratory values • Vital sign measurements • ECOG PS
An AE is any untoward medical occurrence in a subject, temporally associated with the use of a medicinal product, whether or not considered related to the medicinal product. An AE can therefore be any unfavorable and unintended sign (including an abnormal laboratory finding), symptom, or disease (new or exacerbated) temporally associated with the use of a medicinal product.
AEs, including abnormal clinical laboratory values, will be graded using the NCI-CTCAE guidelines (Version 4.03).
The safety analysis set (SAF), which consists of all subjects who received any amount of study drug, will be used for safety analyses.
SAF was used to perform all safety analysis. All treated subjects were analyzed according to the treatment they received.
The number and percentage of AEs by severity were also summarized. All AEs were listed.
A study drug-related TEAE is defined as any TEAE with a causal relationship of YES by the investigator. AEs of interest as classified by customized MedDRA queries and/or standard MedDRA queries were also summarized.

Q: For enfortumab vedotin, which “Treatment-related adverse events of grade 3 or higher” value (% of patients) is on record?
A: 51.4%

Q: And the “Treatment-related adverse events resulting in dose reduction” value (% of patients)?
A: 32.4%

Q: And the “Treatment-related adverse events resulting in interruption of treatment” value (% of patients)?
A: 51.0%

Q: What about the “Treatment-related adverse events resulting in withdrawal of treatment” value (% of patients) of the same substance?
A: 13.5%

Q: And the “grade 3 or higher treatment-related decreased neutrophil count” value (% of patients)?
A: 6.1%

Q: What about the “grade 3 or higher treatment-related fatigue” value (% of patients) of the same substance?
A: 6.4%

Q: What about the “grade 3 or higher treatment-related maculopapular rash” value (% of patients) of the same substance?
A: 7.4%

Q: And the “Grade ≥3 TRAE: Decreased neutrophil count, %” value (All, N = 296 EV, 291 SC)?
A: 6.1%

Q: What about the “Grade ≥3 TRAE: Decreased white blood cell count, %” value (All, N = 296 EV, 291 SC) of the same substance?
A: 1.4%

Q: What about the “Grade ≥3 TRAE: Fatigue, %” value (All, N = 296 EV, 291 SC) of the same substance?
A: 6.4%

Q: What about the “Grade ≥3 TRAE: Febrile neutropenia, %” value (All, N = 296 EV, 291 SC) of the same substance?
A: 0.7%

Q: And the “Grade ≥3 TRAE: Maculopapular rash, %” value (All, N = 296 EV, 291 SC)?
A: 7.4%

Q: What about the “Grade ≥3 TRAE: Neutropenia, %” value (All, N = 296 EV, 291 SC) of the same substance?
A: 4.7%

Q: What about the “TRAE: Alopecia, Number of patients” value [1] of the same substance?
A: 134

Q: And the “TRAE: Alopecia, percent” value [1]?
A: (45.3) percent

Q: What about the “TRAE: Anemia, Number of patients” value [1] of the same substance?
A: 34

Q: And the “TRAE: Anemia, percent” value [1]?
A: (11.5) percent

Q: What about the “TRAE: Any adverse event, Number of patients” value [1] of the same substance?
A: 278

Q: What about the “TRAE: Any adverse event, percent” value [1] of the same substance?
A: (93.9) percent

Q: And the “TRAE: Decreased appetite, Number of patients” value [1]?
A: 91

Q: What about the “TRAE: Decreased appetite, percent” value [1] of the same substance?
A: (30.7) percent

Q: What about the “TRAE: Decreased neutrophil count, Number of patients” value [1] of the same substance?
A: 30

Q: And the “TRAE: Decreased neutrophil count, percent” value [1]?
A: (10.1) percent

Q: And the “TRAE: Decreased white-cell count, Number of patients” value [1]?
A: 16

Q: What about the “TRAE: Decreased white-cell count, percent” value [1] of the same substance?
A: (5.4) percent

Q: What about the “TRAE: Diarrhea, Number of patients” value [1] of the same substance?
A: 72

Q: What about the “TRAE: Diarrhea, percent” value [1] of the same substance?
A: (24.3) percent

Q: What about the “TRAE: Dysgeusia, Number of patients” value [1] of the same substance?
A: 72

Q: What about the “TRAE: Dysgeusia, percent” value [1] of the same substance?
A: (24.3) percent

Q: What about the “TRAE: Fatigue, Number of patients” value [1] of the same substance?
A: 92

Q: And the “TRAE: Fatigue, percent” value [1]?
A: (31.1) percent

Q: What about the “TRAE: Febrile neutropenia, Number of patients” value [1] of the same substance?
A: 2

Q: And the “TRAE: Febrile neutropenia, percent” value [1]?
A: (0.7) percent

Q: What about the “TRAE: Maculopapular rash, Number of patients” value [1] of the same substance?
A: 48

Q: And the “TRAE: Maculopapular rash, percent” value [1]?
A: (16.2) percent

Q: And the “TRAE: Nausea, Number of patients” value [1]?
A: 67

Q: And the “TRAE: Nausea, percent” value [1]?
A: (22.6) percent

Q: And the “TRAE: Neutropenia, Number of patients” value [1]?
A: 20

Q: And the “TRAE: Neutropenia, percent” value [1]?
A: (6.8) percent

Q: What about the “TRAE: Peripheral sensory neuropathy, Number of patients” value [1] of the same substance?
A: 100

Q: And the “TRAE: Peripheral sensory neuropathy, percent” value [1]?
A: (33.8) percent

Q: What about the “TRAE: Pruritus, percent” value [1] of the same substance?
A: (32.1) percent

Q: What about the “Treatment-emergent Hyperglycemia, %” value (Baseline BMI <30 kg/m^2, n = 255 EV, 244 chemotherapy) of the same substance?
A: 9.0%

Q: And the “Treatment-emergent Hyperglycemia, %” value (Baseline BMI ≥30 kg/m^2, n = 41 EV, 46 chemotherapy)?
A: 29.3%

Q: And the “Treatment-emergent Hyperglycemia, %” value [2]?
A: 38.2%

Q: What about the “Treatment-emergent Peripheral motor neuropathy, %” value [2] of the same substance?
A: 20.0%

Q: What about the “Treatment-emergent Peripheral neuropathy, %” value [2] of the same substance?
A: 49.1%

Q: And the “Treatment-emergent Peripheral sensory neuropathy, %” value [2]?
A: 40.0%

Q: What about the “TRAE of special interest: Blurred vision, %” value (“TRAE … Blurred vision, %” for short) [3] of the same substance?
A: 3.4%

Q: What about the “TRAE of special interest: Corneal disorders, %” value [3] of the same substance?
A: 0.7%

Q: And the “TRAE of special interest: Dry eye, %” value [3]?
A: 11.5%

Q: What about the “TRAE of special interest: Extravasation site reactions, %” value (shortened to “TRAE … Extravasation site reactions, %”) [3] of the same substance?
A: 0.3%

Q: And the “TRAE of special interest: Hyperglycemia, %” value (from here on “TRAE … Hyperglycemia, %”) [3]?
A: 1.0%

Q: And the “TRAE of special interest: Infusion-related reactions, %” value (from here on “TRAE … Infusion-related reactions, %”) [3]?
A: 3.7%

Q: What about the “TRAE of special interest: Infusion-related reactions, Local events, %” value [3] of the same substance?
A: 0.3%

Q: And the “TRAE of special interest: Infusion-related reactions, Systemic events, %” value (shortened to “TRAE of special interest … Systemic events, %”) [3]?
A: 3.4%

Q: And the “TRAE of special interest: Ocular disorders, %” value (“TRAE … Ocular disorders, %” for short) [3]?
A: 13.5%

Q: What about the “TRAE of special interest: Peripheral neuropathy, %” value (“TRAE … Peripheral neuropathy, %” for short) [3] of the same substance?
A: 14.9%

Q: What about the “TRAE of special interest: Peripheral neuropathy, Motor events, %” value (from here on “TRAE of special interest … Motor events, %”) [3] of the same substance?
A: 1.7%

Q: And the “TRAE of special interest: Peripheral neuropathy, Sensory events, %” value (shortened to “TRAE of special interest … Sensory events, %”) [3]?
A: 14.5%

Q: And the “TRAE of special interest: Rash, %” value [3]?
A: 13.9%

Q: And the “TRAE of special interest: Severe cutaneous adverse reaction, %” value (from here on “TRAE … Severe cutaneous adverse reaction, %”) [3]?
A: 6.8%

Q: And the “TRAE of special interest: Skin reactions, %” value (from here on “TRAE … Skin reactions, %”) [3]?
A: 13.9%

Q: What about the “TRAE … Blurred vision, %” value [4] of the same substance?
A: 0.7%

Q: And the “TRAE of special interest: Dry eye, %” value [4]?
A: 3.7%

Q: And the “TRAE … Extravasation site reactions, %” value [4]?
A: 0.7%

Q: And the “TRAE … Hyperglycemia, %” value [4]?
A: 1.4%

Q: What about the “TRAE of special interest: Infusion site reactions, %” value [4] of the same substance?
A: 0.7%

Q: And the “TRAE … Infusion-related reactions, %” value [4]?
A: 3.7%

Q: What about the “TRAE of special interest: Infusion-related reactions, Local events, %” value [4] of the same substance?
A: 0.7%

Q: And the “TRAE of special interest … Systemic events, %” value [4]?
A: 3.0%

Q: And the “TRAE … Ocular disorders, %” value [4]?
A: 4.4%

Q: And the “TRAE … Peripheral neuropathy, %” value [4]?
A: 26.4%

Q: What about the “TRAE of special interest … Motor events, %” value [4] of the same substance?
A: 4.1%

Q: What about the “TRAE of special interest … Sensory events, %” value [4] of the same substance?
A: 25.7%

Q: What about the “TRAE of special interest: Rash, %” value [4] of the same substance?
A: 15.5%

Q: And the “TRAE … Severe cutaneous adverse reaction, %” value [4]?
A: 8.4%

Q: What about the “TRAE … Skin reactions, %” value [4] of the same substance?
A: 18.6%

Q: And the “TRAE of special interest: Dry eye, %” value [5]?
A: 0.7%

Q: What about the “TRAE … Hyperglycemia, %” value [5] of the same substance?
A: 3.7%

Q: And the “TRAE … Infusion-related reactions, %” value [5]?
A: 1.4%

Q: And the “TRAE of special interest … Systemic events, %” value [5]?
A: 1.4%

Q: And the “TRAE … Ocular disorders, %” value [5]?
A: 0.7%

Q: What about the “TRAE … Peripheral neuropathy, %” value [5] of the same substance?
A: 5.1%

Q: And the “TRAE of special interest … Motor events, %” value [5]?
A: 1.7%

Q: What about the “TRAE of special interest … Sensory events, %” value [5] of the same substance?
A: 3.7%

Q: And the “TRAE of special interest: Rash, %” value [5]?
A: 14.2%

Q: What about the “TRAE … Severe cutaneous adverse reaction, %” value [5] of the same substance?
A: 4.7%

Q: What about the “TRAE … Skin reactions, %” value [5] of the same substance?
A: 14.2%

Q: And the “TRAE of special interest: Rash, %” value [6]?
A: 0.3%

Q: What about the “TRAE … Severe cutaneous adverse reaction, %” value [6] of the same substance?
A: 0.3%

Q: What about the “TRAE … Skin reactions, %” value [6] of the same substance?
A: 0.3%

Q: And the “TRAE … Hyperglycemia, %” value (Grade 5, N = 296 EV, 291 chemotherapy)?
A: 0.3%

Q: What about the “TRAE … Blurred vision, %” value [7] of the same substance?
A: 4.1%

Q: What about the “TRAE of special interest: Corneal disorders, %” value [7] of the same substance?
A: 0.7%

Q: What about the “TRAE of special interest: Dry eye, %” value [7] of the same substance?
A: 15.9%

Q: And the “TRAE … Extravasation site reactions, %” value [7]?
A: 1.0%

Q: And the “TRAE … Hyperglycemia, %” value [7]?
A: 6.4%

Q: And the “TRAE of special interest: Infusion site reactions, %” value [7]?
A: 0.7%
